Results taken from article doi:10.1101/457440v1.
Numbering of substitutions follows the chain as printed. Names and notes keep the numbering of the source.

B1: MsCHI-2 (Medicago sativa; G95V) (protein)
chain: MAASITAITVENLEYPAVVTSPVTGKSYFLGGAGERGLTIEGNFIKFTAIGVYLEDIAVASLAAKWKGKSSEELLETLDFYRDIISGPFEKLIRVSKIRELSGPEYSRKVMENCVAHLKSVGTYGDAEAEAMQKFAEAFKPVNFPPGASVFYRQSPDGILGLSFSPDTSIPEKEAALIENKAVSSAVLETMIGEHAVSPDLKRCLAARLPALLNEGAFKIGN
B2: MsCHI-2 (Medicago sativa; K97M) (protein)
chain: B1 chain with V95G, K97M
B3: MsCHI-2 (Medicago sativa) (protein)
chain: B1 chain with V95G
B4: MsCHI-2 (Medicago sativa; R36K) (protein)
chain: B1 chain with R36K, V95G
B5: AtCHI-1 (Arabidopsis thaliana) (protein)
chain: MSSSNACASPSPFPAVTKLHVDSVTFVPSVKSPASSNPLFLGGAGVRGLDIQGKFVIFTVIGVYLEGNAVPSLSVKWKGKTTEELTESIPFFREIVTGAFEKFIKVTMKLPLTGQQYSEKVTENCVAIWKQLGLYTDCEAKAVEKFLEIFKEETFPPGSSILFALSPTGSLTVAFSKDDSIPETGIAVIENKLLAEAVLESIIGKNGVSPGTRLSVAERLSQLMMKNKDEKEVSDHSVEEKLAKEN
B6: AtCHI-1 (Arabidopsis thaliana; V106G) (protein)
chain: B5 chain with V106G
B7: MsCHI-2 (Medicago sativa; G95T) (protein)
chain: B1 chain with V95T

These proteins were tested on O=C(/C=C/c1ccc(O)cc1)c1c(O)cc(O)cc1O (assay: purified protein).

Protein	Km	kcat
B1	5.3 ± 2.6 µM	512 ± 26 min⁻¹
B2	14.5 ± 4.2 µM	1,300 ± 154 min-1
B3	112 ± 28 µM	11,180 ± 1,380 min-1
B4	98.3 ± 1.5 µM	25.4 ± 1.1 min⁻¹
B5	62 ± 9 µM	379 ± 35 min⁻¹
B6	19.0 ± 0.5 µM	332 ± 34 min⁻¹

The proteins below were run on O=C(/C=C/c1ccc(O)cc1)c1ccc(O)cc1O (assay: purified protein).

Protein	Km	kcat
B1	65 ± 10 µM	2.16 ± 0.02 min⁻¹
B2	25.7 ± 2.1 µM	658 ± 11 min⁻¹
B3	8.4 ± 2.0 µM	2,250 ± 165 min-1
B5	16.8 ± 3.5 µM	0.064 ± 0.005 min⁻¹

Each protein was assayed on O=C(/C=C/c1ccc(O)cc1)c1ccc(O)cc1O (assay: Michaelis-Menten kinetics of cyclization).
Type: biochemical, Medicago sativa

Protein	Km	kcat
B7	117 ± 12 µM	23.3 ± 1.7 min⁻¹
